In PMC8423306, “Coordinated action of multiple transporters in the acquisition of essential cationic amino acids by the intracellular parasite Toxoplasma gondii” (PLoS Pathogens, 2021):

Key:
[1] = target: T1, TgApiAT6-1 (Toxoplasma gondii, UniProt A0A125YQS6); assay: radiolabelled uptake in Xenopus oocytes; inhibition of Arg uptake at […]; trans-stimulation; type: cell-based
T1 construct: gene ApiAT6-1; HA-tagged TgApiAT6-1 open reading frame expressed in Xenopus laevis oocytes
T1 sequence (A0A125YQS6 1-566): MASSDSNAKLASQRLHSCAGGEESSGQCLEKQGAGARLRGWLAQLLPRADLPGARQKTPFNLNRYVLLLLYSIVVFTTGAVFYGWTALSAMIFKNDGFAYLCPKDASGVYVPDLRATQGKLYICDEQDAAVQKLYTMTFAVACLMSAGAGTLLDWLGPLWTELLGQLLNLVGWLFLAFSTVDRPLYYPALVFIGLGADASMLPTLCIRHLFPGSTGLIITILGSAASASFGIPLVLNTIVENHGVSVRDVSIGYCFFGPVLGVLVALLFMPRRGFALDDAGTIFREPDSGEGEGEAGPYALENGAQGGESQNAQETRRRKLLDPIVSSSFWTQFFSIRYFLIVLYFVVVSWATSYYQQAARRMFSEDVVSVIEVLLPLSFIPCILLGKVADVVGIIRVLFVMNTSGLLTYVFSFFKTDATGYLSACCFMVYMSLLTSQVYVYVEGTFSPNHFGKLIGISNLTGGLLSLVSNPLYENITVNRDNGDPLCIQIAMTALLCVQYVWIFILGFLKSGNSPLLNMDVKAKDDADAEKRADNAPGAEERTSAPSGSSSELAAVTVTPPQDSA

[2] = target: T1, TgApiAT6-1; assay: inhibition of […]Arg uptake at […] and trans-stimulation of Arg efflux in Xenopus oocytes; type: cell-based
[3] = target: T1, TgApiAT6-1; assay: inhibition of […]Arg uptake at […] and trans-stimulation of Arg uptake in Xenopus oocytes; type: cell-based
[4] = substrate: NCCCC[C@H](N)C(=O)O; assay: cells, lysate or membranes; type: cell-based, Toxoplasma gondii; settings: same binding site as Arg; competitive with Arg
[5] = substrate: N=C(N)NCCC[C@H](N)C(=O)O; assay: cells, lysate or membranes; type: cell-based, Toxoplasma gondii; settings: same binding site as Lys

`CSCC[C@H](N)C(=O)O` [Met, methionine] was tested, and the “radiolabelled uptake in Xenopus oocytes; inhibition of Arg uptake at 10 mM; tran” value [1] was “TgApiAT6-1 also mediated uptake of Arg and some neutral amino acids including Met and Leu”.

With `N[C@@H](Cc1c[nH]cn1)C(=O)O` [His, histidine] the “inhibition of [14C]Arg uptake at 10 mM and trans-stimulation of Arg efflux in Xe” value [2] was “numerous neutral amino acids including Met, Leu, Phe and His partially inhibited Arg uptake”.

With `CC(C)C[C@H](N)C(=O)O` [Leu, leucine] the “radiolabelled uptake in Xenopus oocytes; inhibition of Arg uptake at 10 mM; tran” value [1] was “TgApiAT6-1 also mediated uptake of Arg and some neutral amino acids including Met and Leu”.

For `N[C@@H](Cc1ccccc1)C(=O)O` [Phe, phenylalanine], the “inhibition of [14C]Arg uptake at 10 mM and trans-stimulation of Arg uptake in Xe” value [3] was “numerous neutral amino acids including Met, Leu, Phe and His partially inhibited Arg uptake”.

B1: TgApiAT6-1 (Toxoplasma gondii ME49) (protein)
chain: MASSDSNAKLASQRLHSCAGGEESSGQCLEKQGAGARLRGWLAQLLPRADLPGARQKTPFNLNRYVLLLLYSIVVFTTGAVFYGWTALSAMIFKNDGFAYLCPKDASGVYVPDLRATQGKLYICDEQDAAVQKLYTMTFAVACLMSAGAGTLLDWLGPLWTELLGQLLNLVGWLFLAFSTVDRPLYYPALVFIGLGADASMLPTLCIRHLFPGSTGLIITILGSAASASFGIPLVLNTIVENHGVSVRDVSIGYCFFGPVLGVLVALLFMPRRGFALDDAGTIFREPDSGEGEGEAGPYALENGAQGGESQNAQETRRRKLLDPIVSSSFWTQFFSIRYFLIVLYFVVVSWATSYYQQAARRMFSEDVVSVIEVLLPLSFIPCILLGKVADVVGIIRVLFVMNTSGLLTYVFSFFKTDATGYLSACCFMVYMSLLTSQVYVYVEGTFSPNHFGKLIGISNLTGGLLSLVSNPLYENITVNRDNGDPLCIQIAMTALLCVQYVWIFILGFLKSGNSPLLNMDVKAKDDADAEKRADNAPGAEERTSAPSGSSSELAAVTVTPPQDSA
notes: HA-tagged TgApiAT6-1 open reading frame expressed in Xenopus laevis oocytes
B1 showed a K0.5 [4] of 22.8 µM, a kcat [4] of 0.042 ± 0.004 s⁻¹ and a kcat/Km [4] of 1840 M⁻¹ s⁻¹. It also gave a K0.5 [5] of 748 µM, a kcat [5] of 0.28 ± 0.1 s⁻¹ and a kcat/Km [5] of 379 M⁻¹ s⁻¹.
